Assay results published in publication PMC8787478.

Assays:
Assay in all cases: EMSA
Settings in all cases: EMSA: 10 mM Tris pH 7.5, 50 mM KCl, 1 mM EDTA, 1 mM DTT, 5% glycerol, 100 ug/mL BSA, 5 ug/mL poly(dI-dC), 0.25 nM probe, 25 C; footprinting: 10 mM Tris pH 8.0 …
[1] = target: T1, His6-AlgR (Pseudomonas aeruginosa PAK) (UniProt P26275)
T1 sequence: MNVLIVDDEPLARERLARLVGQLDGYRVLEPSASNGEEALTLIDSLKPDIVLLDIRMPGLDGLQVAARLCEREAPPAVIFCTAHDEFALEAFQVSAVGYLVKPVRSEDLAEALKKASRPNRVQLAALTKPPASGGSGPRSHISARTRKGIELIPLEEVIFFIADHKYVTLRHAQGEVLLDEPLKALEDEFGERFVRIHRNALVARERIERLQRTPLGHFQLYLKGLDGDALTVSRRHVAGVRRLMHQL

[2] = target: T2, Vfr (Pseudomonas aeruginosa) (UniProt P55222)
T2 sequence: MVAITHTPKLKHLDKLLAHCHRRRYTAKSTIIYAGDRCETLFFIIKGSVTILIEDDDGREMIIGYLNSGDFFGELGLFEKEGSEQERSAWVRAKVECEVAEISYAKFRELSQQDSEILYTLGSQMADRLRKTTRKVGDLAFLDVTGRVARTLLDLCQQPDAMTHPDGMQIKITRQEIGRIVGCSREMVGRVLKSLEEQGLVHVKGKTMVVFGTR

[3] = target: T3, Vfr;His6-AlgR (Pseudomonas aeruginosa;Pseudomonas aeruginosa PAK) (UniProt P55222+P26275)
T3 sequence 1: T2 sequence
T3 sequence 2: T1 sequence

[4] = system: His6-AlgR (Pseudomonas aeruginosa PAK)

In the case of “GCATACCGTTGCCTGGCAACTGATCCTCAACCGGCAGGGCCGGCTCCGTACCGCGAGCGCCAGGGAGAACCGGGAGAAACGTGAGCTATGCAGCACTTCCGGATGATCATGGACCAGTTGTCCTGCCCCACGGGCCGACCGTCAACGACCGCAAGACGCTCCCAGGCCCGTTTGGCATGCTTTCCAGGCGTAGAC (double strand) [PfimU WT]”, the binding [1] is reported as “binds”, the binding [2] is reported as “binds” and the binding [3] is reported as “binds”.

PfimU WT gave a K half [4] greater than 351 nM.

For “GTACGGGCGAAATAAAGCACCGAAATGTCATCTGCCAAATCAAACCGCGAAACAGCGCTCGTTCCGGCTTCGTCGACGAGCCGCCGGTTTTTCCTCCCGGCCTGCTATCATCGTCGCACTTTGCCCGTCACGCAGGCCGCGCG (double strand) [PalgZ VBS3 mutant]”, the binding [2] was “binds”.

In the case of “GTACGGGCGAAATAAAGCACCGAAATGTCATCTGCCAAATCAAACCACAGAACAGCGATACTTCCGGCTTCGTCGACGAGCCGCCGGTTTTTCCTCCCGGCCAGTAATCATCGTTGCCCTTTGCCCGTCACGCAGGCCGCGCG (double strand) [PalgZ VBS1-2-3 mutant]”, the binding [2] is reported as “no binding”.

In the case of “GTACGGGCGAAATAAAGCACCGAAATGTCATCTGCCAAATCAAACCACAGAACAGCGATACTTCCGGCTTCGTCGACGAGCCGCCGGTTTTTCCTCCCGGCCTGCTATCATCGTCGCACTTTGCCCGTCACGCAGGCCGCGCG (double strand) [PalgZ VBS2-3 mutant]”, the binding [2] is reported as “binds more weakly”.

In the case of “GTACGGGCGAAATAAAGCACCGAAATGTCATCTGCCAAATCAAACCGCGAAACAGCGCTCGTTCCGGCTTCGTCGACGAGCCGCCGGTTTTTCCTCCCGGCCAGTAATCATCGTTGCCCTTTGCCCGTCACGCAGGCCGCGCG (double strand) [PalgZ VBS1-3 mutant (VBS1 and VBS3)]”, the binding [2] is reported as “binds more weakly”.

For “GTACGGGCGAAATAAAGCACCGAAATGCCATCTGCCGCAAAAAACCGCGAAACAGCGCTCGTTCCGGCTTCGTCGACGAGCCGCCGGTTTTTCCTCCCGGCCAGTAATCATCGTTGCCCTTTGCCCGTCACGCAGGCCGCGCG (double strand) [PalgZ VBS1 mutant]”, the binding [2] was “binds more weakly”.
